Reference: patent publication US8129349B2, “Treatment of disease by inducing cell apoptosis” (The Regents of the University of California, priority 2000, dated 2012)
Marks after values point to notes of the source that are not given here.

Tests used:
[1] = test system: RD (skeletal muscle cancer cells); assay: Annexin-V binding apoptosis assay after transfection, RD cells; format: cell-based, human; conditions: annexin-V binding four hours after transfection
Experimental: (§1) In these experiments, C/EBPβ-Ala^217 was tested in two mesenchymal cell lines for its ability to induce apoptosis. Human mesenchymal cell lines 1321-N1 (glial cancer cells; obtained from Dr. Joan Brown, at the University of California, San Diego), RD (skeletal muscle cancer cells; ATCC Accession No. CCL-136), human fibroblasts (98VA3N cells, obtained from Dr. Jerry VanderBerg, at the Veterans Administration Medical Center, San Diego, Calif.), ES2 (ovarian cancer cell line), C3A (liver cancer cell line), and MCF-7 breast cancer cells were cultured in minimal essential medium supplemented with fetal bovine serum as known in the art (See e.g., Buck et al., EMBO J., 13:151-160 (1994)). As additional cell types find use in the present invention, it is not intended that the present invention be limited to these specific cell lines. Indeed, similar results have been obtained with other cell types (e.g., CCF-STTG1 cells (ATCC Accession No. CRL-1718)) (data not shown).
(§2) Cells were co-transfected with vectors expressing the indicator protein GFP and C/EBPβ-Ala^217 as known in the art (See, Buck et al., Mol. Cell., 4:1087-1092 (1999)). Control cells were only transfected with GFP. […]

[2] = test system: 1321-N1 (glial cancer cells); assay: Annexin-V binding apoptosis assay after transfection, 1321-N1 cells; format: cell-based, human; conditions: annexin-V binding four hours after transfection
Experimental: as §1, §2

[3] = test system: human fibroblasts (98VA3N cells); assay: Annexin-V binding apoptosis assay after transfection, 98VA3N cells; format: cell-based; conditions: annexin-V binding four hours after transfection
Experimental: as §1, §2

[4] = test system: C3A (liver cancer cell line); assay: Annexin-V binding apoptosis assay after transfection, C3A cells; format: cell-based, human; conditions: annexin-V binding four hours after transfection
Experimental: as §1, §2

[5] = test system: ES2 (ovarian cancer cell line); assay: Annexin-V binding apoptosis assay after transfection, ES2 cells; format: cell-based, human; conditions: annexin-V binding four hours after transfection
Experimental: as §1, §2

[6] = test system: MCF-7 breast cancer cells; assay: Annexin-V binding apoptosis assay after transfection, MCF-7 cells; format: cell-based, human; conditions: annexin-V binding four hours after transfection
Experimental: as §1, §2

hepatic stellate cells = assay: Apoptosis of activated stellate cells transfected with C/EBPβ constructs, annexin-V-PE binding; format: cell-based, mouse; conditions: transfected cells on collagen type I matrix
Text: FIG. 1 provides data showing that phosphorylation of C/EBPβ on Thr^217 is required for hepatic stellate cell survival. Panel A provides phosphopeptide maps of in vivo labeled endogenous C/EBPβ in day-4 quiescent and activated primary mouse stellate cells cultured from the time of isolation on EHS or collagen type I matrix, respectively. The arrow indicates the peptide containing Phospho-Thr^217 in activated cells. […] Panel B provides phosphopeptide maps of in vitro labeled C/EPBβ. Active p90RSK phosphorylated C/EPBβ, but not C/EBPβ-Ala^217 on Thr^217 in vitro (arrowheads). Panel C provides results for cells cultured on collagen type I transfected with MSV-C/EBPβ antisense (AS), MSV-C/EBPβ sense (S), or MSV-C/EBPβ-Ala^217 together with CMV-GFP (green fluorescent protein) and p90RSK (1 μg each), as indicated in the Figure. Four hours after transfection, annexin-V-PE binding to plasma membranes was determined. The values presented are the percentage of transfected cells (green) that were annexin-V-PE (+) (red) (P<0.05 for C/EBPβ AS, and C/EBPβ-Ala^217). Panel D provides results for cells transfected as in […] with vectors expressing dominant negative mutants for MEKK1, IκBα, or p90RSK, or treated with the proteasome inhibitor lactacystin (10 μM) (closed bars), and co-transfected with MSV-C/EBPβ-Glu^217 (1 μg each) (open bars) as indicated. Annexin-V-PE binding was determined as described for Panel A (P<0.05 for C/EBPβ-Glu^217). Panel E provides results for cells transfected as described for Panel C, with a dominant-negative p90RSK, treated with FAS (100 nM for 6 hours) or cultured in a serum-free medium for 6 hours (closed bars), and co-transfected with MSV-C/EBPβ-Glu^217 (1 μg each) (open bars), as indicated. Cell death was determined by nuclear staining with Hoechst 33342 (P<0.05 for C/EBPβ-Glu^217 in RSK mut and FAS-treated cells).
FIG. 4 provides results showing that C/EBPβ PThr^217 associates with procaspases 1 and 8, and inhibits their activation. Panel A provides schematic representations of C/EBPβ peptides. The activation (dotted bars), DNA binding (solid bars) and dimerization (hatched bars) domains are shown. […] Panel C provides results showing that C/EBPβ and procaspase 8 were detected in activated stellate cells isolated from C/EBPβ^+/+ mice by confocal microscopy using specific antibodies (Santa Cruz Biotechnology). Control C/EBPβ^−/− stellate cells were negative for C/EBPβ, positive for procaspase 8, and apoptotic. Panel D provides immunoblot results for MSV vectors expressing C/EBPβ-HA (hemagglutinin protein) peptides (0.3 μg) transfected into activated stellate cells. The expressed peptides were immunoprecipitated with anti-HA antibodies. C/EBPβ-PThr^217 was detected using a specific antibody, only in cells expressing wild-type C/EBPβ. […] RSK was associated with all C/EBPβ peptides. Neither C/EBPβ nor procaspases 1 and 8 were detected in C/EBPβ immunoprecipitates from cells expressing C/EBPβ AS. Reciprocal immunoprecipitations of procaspases and RSK confirmed these associations.
Adult male Sprague-Dawley rats and adult male C/EBPβ^+/+ and C/EBPβ^−/− (Screpanti et al., supra; and Buck et al., (1999), supra), C/EBPβ-Ala^217 and C/EBPβ-Asp^105 transgenic mice were used for the isolation of primary hepatic stellate cells (Houglum et al., supra). Primary hepatic stellate cells were isolated by collagenase/pronase perfusion and purified by a single step density Nycodenz gradient (Accurate Chemical & Scientific) as known in the art (See, Lee et al., (1995), supra). Cells were plated on type I collagen matrix (Becton Dickinson) or EHS matrix (Matrigel, Collaborative Biomedical Products). Cells were cultured with 10% fetal calf serum/10% fetal bovine serum and transfected with lipofectamine (GIBCO) for DNA vectors or with the Chariot reagent (Active Motif) for peptides (10 μM) as known in the art (See, Houglum et al., supra; and Morris et al., J. Biol. Chem., 274:24942-24946 (1999)). […]

B1: C/EBPβ-Ala^217: modified murine C/EBPβ with mutation of Thr^217 to Ala (SEQ ID NO:3), nonphosphorylatable dominant negative mutant (protein, listed as Mus musculus)
chain: MHRLLAWDAACLPPPPAAFRPMEVANFYYEPDCLAYGAKAARAAPRAPAAEPAIGEHERAIDFSPYLEPLAPAADFAAPAPAHHDFLSDLFADDYGAKPSKKPADYGYVSLGRAGAKAAPPACFPPPPPAALKAEPGFEPADCKRADDAPAMAAGFPFALRAYLGYQATPSGSSGSLSTSSSSSPPGTPSPADAKAAPAACFAGPPAAPAKAKAKKAVDKLSDEYKMRRERNNIAVRKSRDKAKMRNLETQHKVLELTAENERLQKKVEQLSRELSTLRNLFKQLPEPLLASAGHC
Apoptosis (%) [1]: 46* % | Apoptosis (%) [2]: 56* % | Apoptosis (%) [3]: 80* % | Apoptosis (%) [4]: 34* % | Apoptosis (%) [5]: 44* % | Apoptosis (%) [6]: 49* % | Effect of expressed construct on apoptosis / survival of stellate cells (hepatic stellate cells): became apoptotic
